For one assay, the target named is T1, cynomolgus CD47 protein (cynomolgus monkey, UniProt A0A2K5X523 19-139).
T1 construct: also called cyCD47; Cyno CD47
Description: KD; method not stated.

A further assay has as its target T2, human CD47 protein (human, UniProt Q08722 19-139, limits assumed).
T2 construct: Soluble protein used for the KD measurements; construct not described; also called hCD47; CD47 (human)
Description: KD; method not stated.

A value given as a limit tells only on which side of the number the result lay.

T2 sequence (Q08722 19-139 limits assumed): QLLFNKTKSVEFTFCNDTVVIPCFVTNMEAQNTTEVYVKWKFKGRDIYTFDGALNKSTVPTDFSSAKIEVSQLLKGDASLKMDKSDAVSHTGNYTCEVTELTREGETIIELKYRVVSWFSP

B1: P1A11_D99E (antibody, V domains shown)
VH: QVQLVQSGAEVKKPGSSVKVSCKASGYTFTNYAISWVRQAPGQGLEWMGGISPLFGTANYAQKFQGRVTITADESTSTAYMELSSLRSEDTAVYYCAREGGRSSDVGWYVGAMDVWGQGTLVTVSS
VL: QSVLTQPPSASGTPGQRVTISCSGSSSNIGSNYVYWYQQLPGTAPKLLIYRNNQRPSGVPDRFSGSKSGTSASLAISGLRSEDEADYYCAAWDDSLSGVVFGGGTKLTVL
notes: Variant of P01A11
As for B1, the Kd in the assay with cynomolgus CD47 protein was over 1500 nM; with human CD47 protein, 1200 nM.

B2: P1A11_S52I (antibody, V domains shown)
VH: QVQLVQSGAEVKKPGSSVKVSCKASGYTFTNYAISWVRQAPGQGLEWMGGIIPLFGTANYAQKFQGRVTITADESTSTAYMELSSLRSEDTAVYYCARDGGRSSDVGWYVGAMDVWGQGTLVTVSS
VL: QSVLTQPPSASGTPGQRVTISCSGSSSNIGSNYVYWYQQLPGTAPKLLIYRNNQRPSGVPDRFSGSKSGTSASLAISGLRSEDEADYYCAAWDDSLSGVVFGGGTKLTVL
notes: Variant of P01A11
As to B2, the Kd with cynomolgus CD47 protein is over 1500 nM; with human CD47 protein it was 1310 nM.

B3: P01A11_T30S_N31S_L54I_G100A_M113I (antibody, V domains shown)
VH: QVQLVQSGAEVKKPGSSVKVSCKASGYTFSSYAISWVRQAPGQGLEWMGGISPIFGTANYAQKFQGRVTITADESTSTAYMELSSLRSEDTAVYYCARDAGRSSDVGWYVGAIDVWGQGTLVTVSS
VL: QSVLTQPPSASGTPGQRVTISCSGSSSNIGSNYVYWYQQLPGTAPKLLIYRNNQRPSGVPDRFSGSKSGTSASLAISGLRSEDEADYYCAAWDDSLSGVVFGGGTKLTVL
notes: Variant of P01A11
B3: the results for the Kd with cynomolgus CD47 protein and in the assay with human CD47 protein were 105 nM and 75 nM, respectively.

B4: P1A11_W108Y (antibody, V domains shown)
VH: QVQLVQSGAEVKKPGSSVKVSCKASGYTFTNYAISWVRQAPGQGLEWMGGISPLFGTANYAQKFQGRVTITADESTSTAYMELSSLRSEDTAVYYCARDGGRSSDVGYYVGAMDVWGQGTLVTVSS
VL: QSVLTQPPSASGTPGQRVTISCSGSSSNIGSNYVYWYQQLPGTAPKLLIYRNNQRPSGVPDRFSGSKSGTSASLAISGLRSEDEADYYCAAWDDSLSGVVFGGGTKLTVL
notes: Variant of P01A11
Take B4: the results for the Kd with cynomolgus CD47 protein and in the assay with human CD47 protein were 32 nM and 25 nM, respectively.

B5: P1A11_M113I (antibody, V domains shown)
VH: QVQLVQSGAEVKKPGSSVKVSCKASGYTFTNYAISWVRQAPGQGLEWMGGISPLFGTANYAQKFQGRVTITADESTSTAYMELSSLRSEDTAVYYCARDGGRSSDVGWYVGAIDVWGQGTLVTVSS
VL: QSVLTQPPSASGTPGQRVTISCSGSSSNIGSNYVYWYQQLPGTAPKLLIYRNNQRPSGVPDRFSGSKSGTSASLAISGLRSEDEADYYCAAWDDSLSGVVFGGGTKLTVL
notes: Variant of P01A11
On to B5, for which the figures for the Kd with cynomolgus CD47 protein and with human CD47 protein were 3.7 nM and 2.9 nM, respectively.

B6: P1A11_G100S (antibody, V domains shown)
VH: QVQLVQSGAEVKKPGSSVKVSCKASGYTFTNYAISWVRQAPGQGLEWMGGISPLFGTANYAQKFQGRVTITADESTSTAYMELSSLRSEDTAVYYCARDSGRSSDVGWYVGAMDVWGQGTLVTVSS
VL: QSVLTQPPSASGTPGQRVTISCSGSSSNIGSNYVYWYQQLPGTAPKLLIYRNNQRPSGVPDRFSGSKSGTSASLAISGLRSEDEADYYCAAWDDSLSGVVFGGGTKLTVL
notes: Variant of P01A11
Consider B6, for which the Kd came out at 36 nM with cynomolgus CD47 protein and 28 nM in the assay with human CD47 protein.

B7: P1A11_W108F (antibody, V domains shown)
VH: QVQLVQSGAEVKKPGSSVKVSCKASGYTFTNYAISWVRQAPGQGLEWMGGISPLFGTANYAQKFQGRVTITADESTSTAYMELSSLRSEDTAVYYCARDGGRSSDVGFYVGAMDVWGQGTLVTVSS
VL: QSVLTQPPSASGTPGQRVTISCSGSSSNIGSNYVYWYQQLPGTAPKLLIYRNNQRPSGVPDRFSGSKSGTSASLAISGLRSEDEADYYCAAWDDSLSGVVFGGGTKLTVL
notes: Variant of P01A11
Take B7: the Kd in the assay with cynomolgus CD47 protein came out at 117 nM; with human CD47 protein it was 103 nM.

B8: P01A11_Y27G_L54I_G100A (antibody, V domains shown)
VH: QVQLVQSGAEVKKPGSSVKVSCKASGGTFTNYAISWVRQAPGQGLEWMGGISPIFGTANYAQKFQGRVTITADESTSTAYMELSSLRSEDTAVYYCARDAGRSSDVGWYVGAMDVWGQGTLVTVSS
VL: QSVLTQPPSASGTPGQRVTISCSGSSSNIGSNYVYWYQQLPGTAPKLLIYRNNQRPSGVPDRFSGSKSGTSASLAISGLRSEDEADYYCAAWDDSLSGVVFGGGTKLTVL
notes: Variant of P01A11
With B8, the values for the Kd in the assay with cynomolgus CD47 protein and with human CD47 protein were 180 nM and 132 nM, respectively.

B9: P01A11_W108A (antibody, V domains shown)
VH: QVQLVQSGAEVKKPGSSVKVSCKASGYTFTNYAISWVRQAPGQGLEWMGGISPLFGTANYAQKFQGRVTITADESTSTAYMELSSLRSEDTAVYYCARDGGRSSDVGAYVGAMDVWGQGTLVTVSS
VL: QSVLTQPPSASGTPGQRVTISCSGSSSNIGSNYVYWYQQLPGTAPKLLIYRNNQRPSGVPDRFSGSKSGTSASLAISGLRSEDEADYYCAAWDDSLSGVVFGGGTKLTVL
notes: Variant of P01A11
In the case of B9, the Kd in the assay with cynomolgus CD47 protein came out at 773 nM; with human CD47 protein it was 608 nM.

B10: P1A11_N31S (antibody, V domains shown)
VH: QVQLVQSGAEVKKPGSSVKVSCKASGYTFTSYAISWVRQAPGQGLEWMGGISPLFGTANYAQKFQGRVTITADESTSTAYMELSSLRSEDTAVYYCARDGGRSSDVGWYVGAMDVWGQGTLVTVSS
VL: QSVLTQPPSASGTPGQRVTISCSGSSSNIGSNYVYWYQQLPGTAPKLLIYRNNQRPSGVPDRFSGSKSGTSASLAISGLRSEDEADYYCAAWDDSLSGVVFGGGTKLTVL
notes: Variant of P01A11
Turning to B10, the Kd was 9.3 nM with cynomolgus CD47 protein and 7 nM with human CD47 protein.

B11: P1A11_Y27G (antibody, V domains shown)
VH: QVQLVQSGAEVKKPGSSVKVSCKASGGTFTNYAISWVRQAPGQGLEWMGGISPLFGTANYAQKFQGRVTITADESTSTAYMELSSLRSEDTAVYYCARDGGRSSDVGWYVGAMDVWGQGTLVTVSS
VL: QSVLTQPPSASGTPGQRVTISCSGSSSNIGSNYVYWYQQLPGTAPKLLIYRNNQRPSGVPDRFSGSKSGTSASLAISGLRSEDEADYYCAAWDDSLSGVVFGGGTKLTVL
notes: Variant of P01A11
For B11, the values for the Kd in the assay with cynomolgus CD47 protein and with human CD47 protein were 23 nM and 20 nM, respectively.

B12: P1A11_G100Q (antibody, V domains shown)
VH: QVQLVQSGAEVKKPGSSVKVSCKASGYTFTNYAISWVRQAPGQGLEWMGGISPLFGTANYAQKFQGRVTITADESTSTAYMELSSLRSEDTAVYYCARDQGRSSDVGWYVGAMDVWGQGTLVTVSS
VL: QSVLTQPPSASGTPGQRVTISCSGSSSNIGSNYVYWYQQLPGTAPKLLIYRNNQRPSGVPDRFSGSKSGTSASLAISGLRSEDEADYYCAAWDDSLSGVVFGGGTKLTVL
notes: Variant of P01A11
B12: the Kd in the assay with cynomolgus CD47 protein and with human CD47 protein was over 1500 nM each time.

B13: P01A11_G100V (antibody, V domains shown)
VH: QVQLVQSGAEVKKPGSSVKVSCKASGYTFTNYAISWVRQAPGQGLEWMGGISPLFGTANYAQKFQGRVTITADESTSTAYMELSSLRSEDTAVYYCARDVGRSSDVGWYVGAMDVWGQGTLVTVSS
VL: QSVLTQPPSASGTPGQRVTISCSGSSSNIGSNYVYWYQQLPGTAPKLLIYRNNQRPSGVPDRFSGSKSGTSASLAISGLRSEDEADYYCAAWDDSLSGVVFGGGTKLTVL
notes: Variant of P01A11
With B13, the Kd with cynomolgus CD47 protein and with human CD47 protein was over 1500 nM throughout.

B14: P01A11_L54A_S104E (antibody, V domains shown)
VH: QVQLVQSGAEVKKPGSSVKVSCKASGYTFTNYAISWVRQAPGQGLEWMGGISPAFGTANYAQKFQGRVTITADESTSTAYMELSSLRSEDTAVYYCARDGGRSEDVGWYVGAMDVWGQGTLVTVSS
VL: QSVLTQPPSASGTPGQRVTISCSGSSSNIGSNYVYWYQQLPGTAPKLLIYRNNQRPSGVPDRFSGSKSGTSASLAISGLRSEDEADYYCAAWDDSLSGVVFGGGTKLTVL
notes: Variant of P01A11
As to B14, the Kd is 16 nM with cynomolgus CD47 protein and 19 nM with human CD47 protein.

B15: P01A11_P53G_D105E (antibody, V domains shown)
VH: QVQLVQSGAEVKKPGSSVKVSCKASGYTFTNYAISWVRQAPGQGLEWMGGISGLFGTANYAQKFQGRVTITADESTSTAYMELSSLRSEDTAVYYCARDGGRSSEVGWYVGAMDVWGQGTLVTVSS
VL: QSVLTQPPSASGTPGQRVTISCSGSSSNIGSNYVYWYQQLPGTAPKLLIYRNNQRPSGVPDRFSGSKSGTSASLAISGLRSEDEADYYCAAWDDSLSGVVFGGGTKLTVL
notes: Variant of P01A11
B15: the Kd with cynomolgus CD47 protein turned out to be 351 nM; with human CD47 protein, 241 nM.

B16: P01A11_T30S_N31S_L54I_G100A_W108Y_M113L (antibody, V domains shown)
VH: QVQLVQSGAEVKKPGSSVKVSCKASGYTFSSYAISWVRQAPGQGLEWMGGISPIFGTANYAQKFQGRVTITADESTSTAYMELSSLRSEDTAVYYCARDAGRSSDVGYYVGALDVWGQGTLVTVSS
VL: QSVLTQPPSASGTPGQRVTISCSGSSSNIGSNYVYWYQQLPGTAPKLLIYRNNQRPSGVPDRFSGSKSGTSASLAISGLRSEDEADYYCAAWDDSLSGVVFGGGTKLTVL
notes: Variant of P01A11
Regarding B16, the Kd with cynomolgus CD47 protein and in the assay with human CD47 protein was over 1500 nM each time.

B17: P1A11_L54I (antibody, V domains shown)
VH: QVQLVQSGAEVKKPGSSVKVSCKASGYTFTNYAISWVRQAPGQGLEWMGGISPIFGTANYAQKFQGRVTITADESTSTAYMELSSLRSEDTAVYYCARDGGRSSDVGWYVGAMDVWGQGTLVTVSS
VL: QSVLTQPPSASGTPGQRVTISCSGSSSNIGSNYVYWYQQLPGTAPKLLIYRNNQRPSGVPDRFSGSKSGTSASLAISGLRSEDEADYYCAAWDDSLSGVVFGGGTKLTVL
notes: Variant of P01A11
As to B17, the Kd with cynomolgus CD47 protein is 1.3 nM; with human CD47 protein it was 0.69 nM.

B18: P1A11_M113L (antibody, V domains shown)
VH: QVQLVQSGAEVKKPGSSVKVSCKASGYTFTNYAISWVRQAPGQGLEWMGGISPLFGTANYAQKFQGRVTITADESTSTAYMELSSLRSEDTAVYYCARDGGRSSDVGWYVGALDVWGQGTLVTVSS
VL: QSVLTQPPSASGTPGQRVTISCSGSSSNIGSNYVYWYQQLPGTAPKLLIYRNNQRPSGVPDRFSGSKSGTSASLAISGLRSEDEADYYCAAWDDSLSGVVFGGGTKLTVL
notes: Variant of P01A11
As for B18, the Kd was 1.2 nM with cynomolgus CD47 protein and 0.86 nM with human CD47 protein.

B19: P01A11_P53G_D114E (antibody, V domains shown)
VH: QVQLVQSGAEVKKPGSSVKVSCKASGYTFTNYAISWVRQAPGQGLEWMGGISGLFGTANYAQKFQGRVTITADESTSTAYMELSSLRSEDTAVYYCARDGGRSSDVGWYVGAMEVWGQGTLVTVSS
VL: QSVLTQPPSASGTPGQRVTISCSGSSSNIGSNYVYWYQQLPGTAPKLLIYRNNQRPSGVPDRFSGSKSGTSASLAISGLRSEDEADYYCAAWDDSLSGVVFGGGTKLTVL
notes: Variant of P01A11
Turning to B19, the Kd with cynomolgus CD47 protein was determined as 520 nM; with human CD47 protein, 300 nM.

B20: P1A11_T30S (antibody, V domains shown)
VH: QVQLVQSGAEVKKPGSSVKVSCKASGYTFSNYAISWVRQAPGQGLEWMGGISPLFGTANYAQKFQGRVTITADESTSTAYMELSSLRSEDTAVYYCARDGGRSSDVGWYVGAMDVWGQGTLVTVSS
VL: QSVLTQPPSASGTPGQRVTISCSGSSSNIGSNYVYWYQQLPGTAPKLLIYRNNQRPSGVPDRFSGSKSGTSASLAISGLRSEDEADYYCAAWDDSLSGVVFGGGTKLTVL
notes: Variant of P01A11
Turning to B20, the Kd with cynomolgus CD47 protein came to 2.5 nM; with human CD47 protein it was 1.8 nM.

B21: P1A11_G100A (antibody, V domains shown)
VH: QVQLVQSGAEVKKPGSSVKVSCKASGYTFTNYAISWVRQAPGQGLEWMGGISPLFGTANYAQKFQGRVTITADESTSTAYMELSSLRSEDTAVYYCARDAGRSSDVGWYVGAMDVWGQGTLVTVSS
VL: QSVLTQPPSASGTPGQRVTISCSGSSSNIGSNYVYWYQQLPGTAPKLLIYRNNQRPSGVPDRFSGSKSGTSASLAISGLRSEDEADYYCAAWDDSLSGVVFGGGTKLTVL
notes: Variant of P01A11
On to B21, for which the Kd with cynomolgus CD47 protein was 11 nM; with human CD47 protein, 8.5 nM.

B22: P01A11_L54A_R102A (antibody, V domains shown)
VH: QVQLVQSGAEVKKPGSSVKVSCKASGYTFTNYAISWVRQAPGQGLEWMGGISPAFGTANYAQKFQGRVTITADESTSTAYMELSSLRSEDTAVYYCARDGGASSDVGWYVGAMDVWGQGTLVTVSS
VL: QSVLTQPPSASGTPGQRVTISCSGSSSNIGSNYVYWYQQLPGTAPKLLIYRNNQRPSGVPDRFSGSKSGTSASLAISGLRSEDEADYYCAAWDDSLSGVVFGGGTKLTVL
notes: Variant of P01A11
For B22, the equilibrium dissociation constant (Kd) with cynomolgus CD47 protein is 45 nM; in the assay with human CD47 protein, 38 nM.

B23: P01A11_L54A_D114E (antibody, V domains shown)
VH: QVQLVQSGAEVKKPGSSVKVSCKASGYTFTNYAISWVRQAPGQGLEWMGGISPAFGTANYAQKFQGRVTITADESTSTAYMELSSLRSEDTAVYYCARDGGRSSDVGWYVGAMEVWGQGTLVTVSS
VL: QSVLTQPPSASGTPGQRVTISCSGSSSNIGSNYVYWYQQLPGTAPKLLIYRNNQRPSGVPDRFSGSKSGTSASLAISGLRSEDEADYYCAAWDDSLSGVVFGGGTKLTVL
notes: Variant of P01A11
For the molecule B23, the Kd is 46 nM in the assay with cynomolgus CD47 protein and 31 nM with human CD47 protein.

B24: P1A11_F55L (antibody, V domains shown)
VH: QVQLVQSGAEVKKPGSSVKVSCKASGYTFTNYAISWVRQAPGQGLEWMGGISPLLGTANYAQKFQGRVTITADESTSTAYMELSSLRSEDTAVYYCARDGGRSSDVGWYVGAMDVWGQGTLVTVSS
VL: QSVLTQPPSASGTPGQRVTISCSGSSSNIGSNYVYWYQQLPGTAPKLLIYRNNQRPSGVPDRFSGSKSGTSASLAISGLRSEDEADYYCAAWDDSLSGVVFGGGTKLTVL
notes: Variant of P01A11
On to B24, for which the figures for the Kd with cynomolgus CD47 protein and with human CD47 protein were 3.3 nM and 2.7 nM, respectively.

B25: P01A11_T30S_N31S_L54I_G100A (antibody, V domains shown)
VH: QVQLVQSGAEVKKPGSSVKVSCKASGYTFSSYAISWVRQAPGQGLEWMGGISPIFGTANYAQKFQGRVTITADESTSTAYMELSSLRSEDTAVYYCARDAGRSSDVGWYVGAMDVWGQGTLVTVSS
VL: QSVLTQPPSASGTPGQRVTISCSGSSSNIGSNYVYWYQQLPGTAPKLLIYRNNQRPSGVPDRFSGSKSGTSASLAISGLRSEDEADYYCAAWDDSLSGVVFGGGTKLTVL
notes: Variant of P01A11
Regarding B25, the Kd with cynomolgus CD47 protein is 138 nM; in the assay with human CD47 protein, 97 nM.

B26: P01A11_P53G (antibody, V domains shown)
VH: QVQLVQSGAEVKKPGSSVKVSCKASGYTFTNYAISWVRQAPGQGLEWMGGISGLFGTANYAQKFQGRVTITADESTSTAYMELSSLRSEDTAVYYCARDGGRSSDVGWYVGAMDVWGQGTLVTVSS
VL: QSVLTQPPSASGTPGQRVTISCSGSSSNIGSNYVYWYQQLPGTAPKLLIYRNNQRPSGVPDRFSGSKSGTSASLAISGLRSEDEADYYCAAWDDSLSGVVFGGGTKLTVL
notes: Variant of P01A11
For the molecule B26, the Kd came to 7.6 nM in the assay with cynomolgus CD47 protein and 5.6 nM in the assay with human CD47 protein.

B27: P01A11_D105E (antibody, V domains shown)
VH: QVQLVQSGAEVKKPGSSVKVSCKASGYTFTNYAISWVRQAPGQGLEWMGGISPLFGTANYAQKFQGRVTITADESTSTAYMELSSLRSEDTAVYYCARDGGRSSEVGWYVGAMDVWGQGTLVTVSS
VL: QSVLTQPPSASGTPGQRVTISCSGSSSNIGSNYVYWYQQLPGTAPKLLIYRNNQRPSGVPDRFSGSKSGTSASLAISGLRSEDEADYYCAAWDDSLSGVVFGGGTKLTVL
notes: Variant of P01A11
Regarding B27, the values for the Kd with cynomolgus CD47 protein and with human CD47 protein were 62 nM and 48 nM, respectively.

B28: P01A11_T30S_N31S_L54I_G100A_M113L (antibody, V domains shown)
VH: QVQLVQSGAEVKKPGSSVKVSCKASGYTFSSYAISWVRQAPGQGLEWMGGISPIFGTANYAQKFQGRVTITADESTSTAYMELSSLRSEDTAVYYCARDAGRSSDVGWYVGALDVWGQGTLVTVSS
VL: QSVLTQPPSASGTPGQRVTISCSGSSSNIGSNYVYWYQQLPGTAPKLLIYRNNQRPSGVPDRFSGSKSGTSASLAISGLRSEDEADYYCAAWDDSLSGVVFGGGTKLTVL
notes: Variant of P01A11
Consider B28, for which the Kd with cynomolgus CD47 protein came to 120 nM; in the assay with human CD47 protein it was 106 nM.

The term Kd denotes the equilibrium constant for the complex coming apart. Read a high Kd as lower affinity.

Source of the values: patent US20210179716A1 (Pfizer, published 2021).
